# Laboratory results from the nanobody polyreactivity screen of Harvey et al. (2022).
# Assay: yeast display, Sf9 membrane polyspecificity reagent, FACS + sequencing; frameworks hold sequencing errors
# Method in brief: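 Polyreactivity labels are assigned by the sorting gate from which each nanobody was recovered. The gates were low and high (top ~1%), set on anti-HA fluorescence for expression and streptavidin fluorescence for reagent binding. Before sorting, galactose-induced (36–48 hours) yeast display cells were stained for 1 hour at 4 °C with 10% biotinylated, detergent-solubilized Sf9 membrane reagent.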
row,Sequence,polyreactivity (PSR sort gate)
1,QVQLVESGGGLVQAGGSLRLSCAASGRIFTHNAMGWYRQAPGKERELVAAISSIGGSTYYADSVKGRFTISRDNAKNTVYLQMNSLKPEDTAVYYCAVKRPLYGDSEYYYWGQGTQVTVSS,low polyreactivity
2,QVQLVESGGGLVQAGGSLRLSCAASGRIFTHNTMGWYRQAPGKERELVAAISSSGGSTYYADSVKGRFTISRDNAKNTVYLQMNSLKPDDTAVYYCNTLIKGRWIVVGYGYPGYDYWGQGTQVTVSS,high polyreactivity
3,QVQLVESGGGLVQAGGSLRLSCAASGRIFTIYAMGWSRQAPGKERELVAAITVSTGSTYYADSVKGRFTISRDNAKNTVYLQMKSLKPEDTAVYYCAKRGQSYTYRRYDYWGQGTQVTVSS,low polyreactivity
4,QVQLVESGGGLVQAGGSLRLSCAASGRIFTIYAMGWYRQAPGKERELVAGIRGGGSTNYADSVKGRFTISRDNAKNTVYLLMNSLKPEDTAVYYCAAEVRRYVIVPYYYWGQGTQVTVSS,high polyreactivity
5,QVQLVESGGGLVQAGGSLRLSCAASGRIFTIYAMGWYRQAPGKERELVATISSNVGSTYYADSVKGRFTISRDNAKNTVYLQMNSLKPEDTAVYYCAATRRAGFTTAKFDYWGQGTQVTVSS,high polyreactivity
6,QVQLVESGGGLVQAGGSLRLSCAASGRIFTKNTKGWYRQAPGKERELVAAIRSRAGSTYYADSVKGRFTISRDNAKNTVYLQMNSLKPEDTAVYYCAVPWFRSVDFDYWGQGTQVTVSS,low polyreactivity
7,QVQLVESGGGLVQAGGSLRLSCAASGRIFTKYAMGWYRQAPGKERELVAAISSRGGSTYYADSVKGRFTISRDNAKNTVYLQMNSLKPEDTAVYYCAAGYLPRYYYTPQFDGDYWGQGTQVTVSS,high polyreactivity
8,QVQLVESGGGLVQAGGSLRLSCAASGRIFTKYAMGWYRQAPGKERELVAGINWRDGRTYYADSVKGRFTLSRDNAKNTVYLQMISLKPVDTAVYYCAGVSIFGRRWMYYWGQGTQVTVSS,high polyreactivity
9,QVQLVESGGGLVQAGGSLRLSCAASGRIFTPYAMGWYRQAPGKERELVAGISSSGGSTYYADSVKGRFTISRDNAKNTVYLQMNSLKPEDTAVYFCNKRYRGTPRSYDYWGQGTQVTVSS,high polyreactivity
10,QVQLVESGGGLVQAGGSLRLSCAASGRIFTRNAMGLYRQAPGKERELVAAISWRGGSTYYADSVKGRFTISRDNAKNTVYLQMNSLKPEDTAVYYCAAQPWFGRAARYRTTYYYWGQGTQVTVSS,high polyreactivity
11,QVQLVESGGGLVQAGGSLRLSCAASGRIFTRNVMGWYRQAPGKERELVAAITTNGGSTYYADSVKGRFTISRDNAKNTVYLQMNSLKPEDTAVYYCAKRTVHYTWVYYWGQGTQVTVSS,high polyreactivity
12,QVQLVESGGGLVQAGGSLRLSCAASGRIFTRYAMGWYRPSPGKERELVAAISRNGGGTYYAESVKGRFTISRDNAKNTVYLQMNSLKPEDTAVYYCNAESTFVWGSYVRYDYWGQGTQVTVSS,low polyreactivity
13,QVQLVESGGGLVQAGGSLRLSCAASGRIFTRYAMGWYRQAPGKERELVAAINSGGSTKYADSVKGRFTISRDNAKHTVYLQMNSLKPEDTAVYYCNACYWWYGYDYWGQGTQVTVSS,high polyreactivity
14,QVQLVESGGGLVQAGGSLRLSCAASGRIFTRYAMGWYRQAPGKERELVATISGSGSTNYADSVKGRFTISRDNAKNTVYLQMNSLKPEDTAVYYCNRRSRREYDYWGQGTQVTVSS,low polyreactivity
15,QVQLVESGGGLVQAGGSLRLSCAASGRIFTRYAMGWYRQAPGTERELVAVITRSGGSTYYADSVKGRFTISRDNAKNTVYLQMNSLKPEDTAVYYCAAKYYGEMYYWGQGTQVTVSS,low polyreactivity
16,QVQLVESGGGLVQAGGSLRLSCAASGRIFTRYAMGWYRQATGKERELVAAISSGGGNTYYADSVKGRFTISRDNAKNTVYLQMNSLKPEDTAVYYCAALRSWRKTGGAQRYWYDYWGQGTQVTVSS,high polyreactivity
17,QVQLVESGGGLVQAGGSLRLSCAASGRIFTSNAMGWYRQAPGKERELVAAISKSGGRTYYADSVKGRFTISRDNAKNTVYLQMNSLKPEDTAVYYCAKDNYWGQGTQVTVSS,high polyreactivity
18,QVQLVESGGGLVQAGGSLRLSCAASGRIFTSNAMGWYRQAPGKERELVAAISSSGTRTYYADSVKGRFTISRDNAKNTVYLQMNSHKPEDTAVYYCASGAPSLKYEYWGQGTQVTVSS,high polyreactivity
19,QVQLVESGGGLVQAGGSLRLSCAASGRIFTSNTMAWYRQAPGKERELVAAITSSGGSMYYADSVKGRFTLSRDNAKNTVYLQIISLKPEDTAVYYFAGDTIGYHYWYDYWGQGTQVTVSS,low polyreactivity
20,QVQLVESGGGLVQAGGSLRLSCAASGRIFTSYAMGWSRQAPGKERELVATISSADGTKYADSVKGRFTISRDNAKNTVYLQMNSLKPEDTAVYYCNAYVWSWNDYWGQGTQVTVSS,low polyreactivity
21,QVQLVESGGGLVQAGGSLRLSCAASGRIFTSYAMGWYRQAPGKERELVAAISRRGDSTYYADSVKGRFTISRDNAKNTVYLQMNSLKPEDTAVYYCNARSSRIWDYYGFDYWGQGTQVTVSS,high polyreactivity
22,QVQLVESGGGLVQAGGSLRLSCAASGRIFTSYAMGWYRQAPGKERELVAAITASGGRTYYADSVKGRFTISRDNAKNTVYLQMNCLKPEDTAVYYCAKLLSFQGDYWGQGTQVTVSS,high polyreactivity

row,Sequence,polyreactivity (PSR sort gate)
1,QVQLVESGGGLVQAGGSLRLSCAASGRIFTSYTMGWYRQAPGKERELVAAIDWSGGTTYYADSVKGRFTISRDNAKNTVYLQMNSLKPEDTAVYYCAALYVKVGYYTYEYWGQGTQVTVSS,low polyreactivity
2,QVQLVESGGGLVQAGGSLRLSCAASGRIFTTYAMGWYRPAPGKERELVAAISQNGGSTYYADSVKGRFTISRDNAKNTVFLQMNSLKPEDTAVYYCNAGPAGYYDYDYWGQGTLVTVSS,low polyreactivity
3,QVQLVESGGGLVQAGGSLRLSCAASGRIFTTYAMGWYRQAPGKERELVAAISRSGGSTYYADSVKGRFTISRDNAKNTVYLQMNSLKPEDTAVYYCAAVPTSNSFLSSFYYWGQGTQVTVSS,high polyreactivity
4,QVQLVESGGGLVQAGGSLRLSCAASGRIFTTYAMGWYRQAPGKERELVAAISRSGGSTYYADSVKGRFTISRDNAKNTVYLQMNSLKTEDTAVYYCAAVPTSNSFRSSFYYWGQGTQVTVSS,high polyreactivity
5,QVQLVESGGGLVQAGGSLRLSCAASGRIFTTYAMGWYRQAPGKERELVARISSGGTTYYADSVQGRFTISRDNAKNTVYLQMNSLKPEDTAVYYCNVRAVTPTRSRPFRYDYWGQGTQVTVSS,high polyreactivity
6,QVQLVESGGGLVQAGGSLRLSCAASGRIFTTYAMGWYRQAPGKERELVASITTTDTRTYADSVKGRFTISRDNAKNTVYLQMNSLKPEDTAVYNCAKDRLNKGRYYRAASDYWGQGTQVTVSS,low polyreactivity
7,QVQLVESGGGLVQAGGSLRLSCAASGRIFTVYAMGWYRQAPGKERELVAAIDFSDGTTYYADSVKARFTISRDNAKNTVYLQMNSLKPEDTAVYYCAAEGGSALDDDYWGQGTQVTVSS,high polyreactivity
8,QVQLVESGGGLVQAGGSLRLSCAASGRIFTWYAMGWYRQAPGKERELVAAISWSGGRTYYADSVKGRFTISRDNAKNTVYLQMNSLKPEDTAVYYCNAVPSVRWRYDYWGQGTQVTVSS,high polyreactivity
9,QVQLVESGGGLVQAGGSLRLSCAASGRIFTYNAMGWSRQAPGKERELVAAISSSGGSTYYADSVKGRFTISRDIAKYTVYLHMNSLKPEDTAVYYCAADDAGFWYYFYGRYVTFDYWGQGTQVTVSS,low polyreactivity
10,QVQLVESGGGLVQAGGSLRLSCAASGRIFTYNAMGWYRQAPGKEWELVAVISRRGGSTYYADSVKGRFTISRDNAKNSVYLQINSLKPDDTAVYYWAADLPSYPYEFWGQGTQVTVSS,low polyreactivity
11,QVQLVESGGGLVQAGGSLRLSCAASGRIFTYNAMGWYRQAPGKEWELVAVISRRGGSTYYADSVKGRFTISRDNAKNSVYLQMNSLKPEDTAVYYCAADLPSYAYEFWGQGTQVTVSS,low polyreactivity
12,QVQLVESGGGLVQAGGSLRLSCAASGRIFTYYAKGWYRQAPGKERELVAAISWSGGSTYYADSVKARITISRDNAKKTVYLVMNSLNPEDTAVYYCNAVYPSVYPVSTRYYWGQGTQVTVSS,high polyreactivity
13,QVQLVESGGGLVQAGGSLRLSCAASGRIFTYYAMGWYRQAPGKERELVAAISYSGSSTYYADSVKGRFTISRDNAKNTVYLQMNSLKPEDTAVYYCAAAPSGHYLAYGYWGQGTQVTVSS,high polyreactivity
14,QVQLVESGGGLVQAGGSLRLSCAASGRIFTYYAMGWYRQAPGKERELVAAITGSGTSTYYADSVKGRFTISRDNAKNTVYLQMNSLKPEDTAVYYCAARNSYSRYYYWGQGTQVTVSS,high polyreactivity
15,QVQLVESGGGLVQAGGSLRLSCAASGRIFTYYAMGWYRQAPGKERELVASISKSSGSTYYADSVKGRFTISRDNAKNTVYLQMNSLKPEDTAVYYCATDPYVRRSPSWYDYWGQGTQVTVSS,low polyreactivity
16,QVQLVESGGGLVQAGGSLRLSCAASGRIFVDNAMGWYRQAPGKERELVAAITGGGSTYADSVKGRFTISRDNAKNTVYLQMNSLKPEDTAVYYCAADLWSVPFTVYTFGIFYYWGQGTQVTVSS,low polyreactivity
17,QVQLVESGGGLVQAGGSLRLSCAASGRIFVDNAMGWYRQAPGKESELVADITSGGSTYYADSVKGRFTISRDNAKNTVYLQMNSLKPEDTAVYYCAADYRVSSDYRYDYWGQGTQVTVSS,low polyreactivity
18,QVQLVESGGGLVQAGGSLRLSCAASGRIFVDNTMGWYRQAPGKERELVAAISRRGTSTYYADSVKGRFTISRDTAKNTVFLQMNSLNPEDTAVYYCAADYYYYDSQQGMDYWGQGTQVTVSS,high polyreactivity
19,QVQLVESGGGLVQAGGSLRLSCAASGRIFVDYDMGWYRPAPGKERELVATISSGGSTNYADSVKGRFTISRDNAKNTVYLQMNSLKPEDTAVYYCAASSYSTSYIRGDYWGQGTQVTVSS,low polyreactivity
20,QVQLVESGGGLVQAGGSLRLSCAASGRIFVFNAMGWYRQAPGKERELVASISSSGGSTYYADSVKGRFTISRDNAKNTVYLQINSLKPEDTAVYYCARRSYHSRYNYWGQGTQVTVSS,high polyreactivity
21,QVQLVESGGGLVQAGGSLRLSCAASGRIFVFYAMGWYRQAPGKERELVAAITASSTRTYYADSVKGRFTISRDHAKNTVYLQLNSLKPEDTAVYYCARDIRQYILYGRGDYWGQGTQVTVSS,low polyreactivity
